Experiment [1] deals with T1, Fc portion of human IgG1-fused LGR5-ECD (R&D systems) (human, UniProt O75473 22-557, limits assumed).
T1 construct: extracellular domain; Bought reagent; also called LGRS; recombinant LGR5 protein; not shown: Fc portion of human IgG1
T1 sequence (looked up): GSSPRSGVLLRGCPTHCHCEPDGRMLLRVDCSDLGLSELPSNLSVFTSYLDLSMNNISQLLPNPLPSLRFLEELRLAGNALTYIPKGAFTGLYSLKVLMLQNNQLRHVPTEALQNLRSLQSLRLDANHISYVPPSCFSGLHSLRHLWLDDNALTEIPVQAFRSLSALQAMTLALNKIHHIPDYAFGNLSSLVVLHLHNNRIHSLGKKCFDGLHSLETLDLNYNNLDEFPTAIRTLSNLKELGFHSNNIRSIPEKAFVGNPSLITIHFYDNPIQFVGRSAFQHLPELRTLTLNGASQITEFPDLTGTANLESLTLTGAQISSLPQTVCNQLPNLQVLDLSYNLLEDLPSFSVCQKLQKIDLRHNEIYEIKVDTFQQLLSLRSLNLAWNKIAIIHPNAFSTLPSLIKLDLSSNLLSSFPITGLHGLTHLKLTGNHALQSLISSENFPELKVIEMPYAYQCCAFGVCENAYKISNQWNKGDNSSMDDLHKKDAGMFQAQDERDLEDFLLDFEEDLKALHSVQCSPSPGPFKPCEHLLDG
As to the kind of experiment: BLI (Octet), LGR5-ECD-Fc on AHC sensor. On the procedure:
Affinity measurement: Binding kinetics of the RSPO-derived proteins to LGRS, RNF43, or ZNRF3, and binding of the anti-ASGR Fabs to human and/or mouse ASGR1 were determined by bio-layer interferometry (BLI) using Octet Red 96 (PALL ForteBio, Fremont, CA) instruments at 30° C., 1000 rpm with either streptavidin (SA) or anti-hIgG Fc capture (AHC) biosensors. […] Following capture of ECDs of RNF43, ZNRF3 or LGRS, the biosensors were dipped into wells containing the relevant test molecules at 7 different concentrations in running buffer plus a well with only running buffer as a reference channel. KD was determined by steady-state analysis based on the average responses between 140 to 145 seconds of association phase, for binding to LGRS, RNF43, and ZNRF3. For the binding to ASGR, KD was determined by curve model fitting using the Octet® Red data analysis software (Fortebio)
For orientation: BLI is a label-free optical method that tracks binding on a fibre tip over time.

For experiment [2], the target named is human transferrin receptor 1 (TFR1), on cells (human, UniProt P02786 1-760). As to the kind of experiment: cell-based or functional assay.
For experiment [3], the target named is T2, human ZNRF3 extracellular domain (hZNRF3 ECD) (human, UniProt Q9ULT6 56-219, biotinylated (His-Avi tag)).
T2 construct: Expressed with a His-Avi tag at the N-terminus and biotinylated; also called ZRNF3
T2 sequence: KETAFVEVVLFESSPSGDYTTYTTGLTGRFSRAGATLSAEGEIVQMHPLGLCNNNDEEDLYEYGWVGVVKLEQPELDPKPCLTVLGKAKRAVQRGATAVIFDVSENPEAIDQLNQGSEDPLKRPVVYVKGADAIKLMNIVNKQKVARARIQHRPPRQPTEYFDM
Description: BLI (Octet), biotinylated antigen on SA sensor, 1:1 fit. On the procedure:
(§1) Binding characterization of recombinant Fabs or IgG' s was carried out using Bio-Layer Interferometry (BLI) using the Octet Red 96 platform (PALL ForteBio, Fremont, Calif.) with streptavidin (SA) coated biosensors (PALL ForteBio,). […] Following immobilization, sensors were dipped into samples containing test molecules at seven concentrations. Values for KD were determined by fitting the resulting data with a 1:1 binding model.

Experiment [4] has as its target T2, human ZNRF3 extracellular domain …. Description: BLI (Octet) KD grade: *** = 100 nM > KD. On the procedure:
as §1

Experiment [5] has the same target. Description: BLI (Octet) KD grade: * = KD >= 1 uM. On the procedure: as §1
For experiment [6] the target is unchanged. As to the kind of experiment: ELISA (binding specificity). (ELISA stands for enzyme-linked immunosorbent assay.)
Experiment [7] concerns the target T3, human RNF43 extracellular domain (hRNF43 ECD) (human, UniProt Q68DV7 44-197, biotinylated (His-Avi tag)).
T3 construct: Expressed with a His-Avi tag at the N-terminus and biotinylated; also called human RNF3 (Q44-D198)
T3 sequence: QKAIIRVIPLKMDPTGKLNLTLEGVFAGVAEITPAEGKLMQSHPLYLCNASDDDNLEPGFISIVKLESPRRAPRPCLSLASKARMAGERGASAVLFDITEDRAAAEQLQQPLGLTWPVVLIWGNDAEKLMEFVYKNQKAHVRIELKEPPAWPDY
Description: ELISA (binding specificity).

Experiment [8] has as its target T4, human ASGR1 extracellular domain (hASGR1 ECD) (human, UniProt P07306 62-291, biotinylated (His-Avi tag)).
T4 construct: His-Avi tag at the N-terminus, biotinylated for BLI; also called human ASGR1 ECD
T4 sequence: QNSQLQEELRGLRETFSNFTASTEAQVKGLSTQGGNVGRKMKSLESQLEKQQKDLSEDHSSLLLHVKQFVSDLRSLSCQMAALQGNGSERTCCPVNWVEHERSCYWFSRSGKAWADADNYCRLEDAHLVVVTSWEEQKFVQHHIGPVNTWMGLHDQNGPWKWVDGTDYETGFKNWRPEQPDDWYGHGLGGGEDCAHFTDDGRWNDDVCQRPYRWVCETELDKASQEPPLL
As to the kind of experiment: BLI, Fab on hASGR1; KD only in the figure.

Numbering of substitutions follows the chain as printed. Numbers in names are those of the source.

human transferrin receptor 1 (TFR1), on cells, sequence (P02786 whole entry, the tested form may be a part): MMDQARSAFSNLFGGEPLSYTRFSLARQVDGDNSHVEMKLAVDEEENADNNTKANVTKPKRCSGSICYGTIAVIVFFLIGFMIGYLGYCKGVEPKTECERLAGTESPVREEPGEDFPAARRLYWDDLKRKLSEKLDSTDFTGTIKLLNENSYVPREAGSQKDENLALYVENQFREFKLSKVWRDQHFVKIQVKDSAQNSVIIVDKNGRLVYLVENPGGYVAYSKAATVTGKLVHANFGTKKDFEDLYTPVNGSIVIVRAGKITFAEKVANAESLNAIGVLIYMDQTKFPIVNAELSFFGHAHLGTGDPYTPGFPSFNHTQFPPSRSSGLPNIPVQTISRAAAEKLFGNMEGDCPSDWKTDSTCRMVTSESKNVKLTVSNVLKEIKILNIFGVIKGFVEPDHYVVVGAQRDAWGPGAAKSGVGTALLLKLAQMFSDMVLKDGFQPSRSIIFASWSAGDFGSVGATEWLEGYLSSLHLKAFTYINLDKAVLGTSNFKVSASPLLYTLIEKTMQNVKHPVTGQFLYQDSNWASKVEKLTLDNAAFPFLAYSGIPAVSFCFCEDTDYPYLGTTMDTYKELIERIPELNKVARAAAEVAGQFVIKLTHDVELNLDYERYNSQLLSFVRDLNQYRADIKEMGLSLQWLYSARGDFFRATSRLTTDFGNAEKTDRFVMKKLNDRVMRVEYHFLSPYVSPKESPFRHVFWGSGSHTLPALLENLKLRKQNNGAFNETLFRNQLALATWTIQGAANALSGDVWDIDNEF

B1: αGFP-RSPO2-5mut (anti-GFP, RSPO2 (R65A/R69A/Q70A/F105A/F109A)) (other)
chain: QVQLVESGGGLVQPGGSLRLSCAASGFTFSRYGMHWVRQAPGKGLEWVSGISSIGSNTYYADSVKGRFTISRDNSKNTLYLQMNSLRAEDTAVYYCARWYKTYIDVWGQGTLVTVSSGGGGSGGGGSGGGGSDIELTQPPSVSVAPGQTARISCSGDNLGKKYVYWYQQKPGQAPVLVIYGDDERPSGIPERFSGSNSGNTATLTISGTQAEDEADYYCASYDSSHILIVFGGGTKLTVLGSGGSNPICKGCLSCSKDNGCSRCQQKLFFFLRAEGMAAYGECLHSCPSGYYGHRAPDMNRCARCRIENCDSCRSKDACTKCKVGFYLHRGRCFDECPDGFAPLEETMECVEGGDYKDDDDKGSHHHHHHHH
notes: scFv against GFP fused to the RSPO2 Fu1-Fu2 fragment with five mutations; FLAG-His tag; also called αGFP-RSPO2-Smut
For the molecule B1, the binding result in experiment [1] is listed as “no binding”.

B2: αTFR1-RSPO2-RA (anti-TFR1, RSPO2 (F105R/F109A)) (other)
chain: QVQLQQSGPELVRPGVSVKISCKGSGYTFTDYAMHWVKQSHAKSLEWIGGISTYFGRTNYNQKFKGRATMTVDKSSSTAYMELARLTSEDSALYYCARGLSGNYVMDYWGQGTSVTVSSGGGGSGGGGSGGGGSDIVLFQSPASLAVSLGQRATISCRASESVDDYGNSFMHWYQQKPGQPPKLLIYRASNLESGIPARFSGSGSRTDFTLTINPVEADDVATYYCQQSNEAPPTFGGGTKLEIRGSGGSNPICKGCLSCSKDNGCSRCQQKLFFFLRREGMRQYGECLHSCPSGYYGHRAPDMNRCARCRIENCDSCRSKDACTKCKVGFYLHRGRCFDECPDGFAPLEETMECVEGGDYKDDDDKGSHHHHHHHH
notes: FLAG-His tag; also called αTFR-RSPO2-RA
For B2, the “potency in the HEK293 STF reporter assay with Wnt sources” value in experiment [2] was approximately 20 fold. Besides, the binding result in experiment [1] is “no binding”.

B3: αTFR1-RSPO2-WT (anti-TFR1, RSPO2 wild type) (other)
chain: B2 chain with R319F, A323F
Consider B3, for which, in experiment [2], the “EC50 in the HEK293 STF reporter assay with Wnt sources” value was approximately 20 fold and the “potency in the HEK293 STF reporter assay with Wnt sources” value is approximately 400 fold.

B4: 028S-H04 (antibody, V domains shown)
VH: QVQLVQSGAEVKKPGASVKVSCKASGYTFIGYYMHWVRQAPGQGLEWLGWVNPKNGHTGYAQKFQGRVTMTRDTSTSTVYMELSSLRSEDTAVYYCAKDLEHTGYSSGWAGFDYWGQGTLVTVSS
VL: not shown
B4 registered a dissociation constant Kd in experiment [3] of 48 nM. This molecule also had a KD in experiment [4] of less than 100 nM.

B5: 028S-B07 (antibody, V domains shown)
VH: QVQLVQSGAEVKKPGASVKVSCKASGYTFTEYYMHWVRQAPGQGLEWMGWMNPNSGHAGSAQKFQGRVTMTRDTSTSTVYMELSSLRSEDTAVYYCARGRRSGLSPPAYWGQGTLVTVSS
VL: EIVMTQSPATLSVSPGERATLSCRASQSVSASLAWYQQKPGQAPRLLIYGASTRATGIPARFSGSGSGTEFTLTISSLQSEDFAVYYCHQYFSPPMTFGQGTRLEIK
With B5, binding in experiment [3] was characterised by a dissociation constant (Kd) of 65.4 nM. The molecule further returned a KD in experiment [4] of less than 100 nM.

B6: 028S-A09 (antibody, V domains shown)
VH: QVQLVQSGAEVKKPGASVKVSCKASGYRFTSYYLHWVRQAPGQGLEWMGWMNPKSGGTNYAQKFQGRVTMTRDTSTSTVYMELSSLRSEDTAVYYCARGGRSYGYWYFDLWGRGTLVTVSS
VL: EIVMTQSPATLSVSPGERATLSCRASQSVDSSYLAWYQQKPGQAPRLLIYAASARAAGIPARFSGSGSGTEFTLTISSLQSEDFAVYYCQQYYRSPPTFGQGTRLEIK
As for B6, in experiment [5], the KD is not below 1000 nM. For the same molecule, the Kd in experiment [3] amounted to 12500 nM.

B7: 028S-D02 (antibody, V domains shown)
VH: QVQLQQSGPGLVKPSQTLSLTCAISGDSVSSNSAAWYWIRQSPSRGLEWLGRTYYRSKWYHDYAVSVKSRITINADTSKNQFSLQLNSVTPEDTAVYYCARVVRAVDAFDIWGQGTMVTVSS
VL: ETTLTQSPGTLSLSPGERATLSCRASQSVNSRYLAWYQQKPGQAPRLLIYGASSRATGIPDRLTGSGSGTDFTLTISRLEPEDFAVYYCQQYGSSRLTFGGGTKVEIK
Molecule B7 came in with a KD in experiment [5] not below 1000 nM. Besides, in experiment [3], the Kd is 3320 nM.

B8: 020S-D07 (antibody, V domains shown)
VH: QVQLVQSGAEVKKPGSSVKVSCKASGGTFSNTDINWVRQAPGQGLEWMGGIIPIFGTANYAQKFQGRVTITADESTSTAYMELSSLRSEDTAVYYCVGGRSGWIWYFDLWGRGTLVTVSS
VL: DIQMTQSPSSLSASVGDRVTITCRASQSISRWLAWYQQKPGKAPKLLIYDASSLETGVPSRFSGSGSGTDFTLTISSLQPEDFATYYCQQAYSFPWTFGQGTKVEIK
Turning to B8, the binding result in experiment [6] and in experiment [7] was “binds” throughout.

B9: 028S-E08 (antibody, V domains shown)
VH: EVQLLESGGGLVQPGGSLRLSCAASGFSFSNYAMSWVRQAPGKGLEWVSAISGSGRTTYYADSVKGRFTISRDNSKNTLYLQMNSLRAEDTAVYYCARRTSSFSLWGQGTLVTVSS
VL: B8 VL with S30N, R31N, D50K, T56S, Y92N, S93T, W96I, K103R, V104L
On to B9, for which the KD in experiment [5] is not below 1000 nM. The same molecule registered a Kd in experiment [3] of 3900 nM.

B10: 028S-E10 (antibody, V domains shown)
VH: QVQLVQSGAEVKKPGASVKVSCKASGYTFTSYYMHWVRQAPGQGLEWMGWINPNTGGTKSAQKFQGRVTMTRDTSTSTVYMELSSLRSEDTAVYYCARVLRGSLGFDYWGQGTLVTVSS
VL: DIQMTQSPSSLSASVGDRVTITCRASQDISRYLAWYQQKPGKAPKLLIYAASTVESGVPSRFSGSGSGTDFTLTISSLQPEDFATYYCQQSYRSPYTFGQGTKLEIK
Molecule B10 returned a KD in experiment [5] not below 1000 nM. Further, binding in experiment [3] was put at a Kd of 4160 nM.

B11: 024S-D03 Fab (Fab, V domains shown)
VH: QVQLQQSGPGLVKPSQTLSLTCAISGDSVSSNSAAWNWMRQSPSRGLEWLGRTYYRSKWYNDYAVSVKSRMTINPDTSRNQFSLQLNSVTLEDTAVYYCARWNHEEHYFDYWGQGTLVTVSS
VL: EIVLTQSPATLSFSPGERATLSCRASQSVGSYLAWYQQRPGQAPRPLIYDATNRATGIPTRFSGSGSGTDFTLTISSLEPEDFATYYCQHRRTFGRGTKLEIK
notes: Tested as Fab, identified by phage display
For the molecule B11, the binding result in experiment [8] is on record as “binds”.

B12: 024S-A04 Fab (Fab, V domains shown)
VH: QVQLQQSGPGLVKPSQTLSLTCAISGDSVSSNSVAWNWMRQSPSRGLEWLGRTYYRSKWYYDYAVSVKSRITINPDTSKNQFSLQLNSVTPEDTAVYYCASWTRGAFDIWGQGTMVTVSS
VL: B11 VL with E1D, V3Q
notes: as for B11
B12: the binding result in experiment [8] is given as “binds”.

B13: 024S-E03 Fab (Fab, V domains shown)
VH: B11 VH with D27A, M39I, M71I, R79K, L91P, E92G
VL: B11 VL with E1D, I2V, L4M
notes: as for B11
B13: in experiment [8], the binding result is recorded as “binds”.

By Kd is commonly meant a measure of binding affinity in units of concentration. High values mean weaker binding, low ones tighter binding. One may read the KD as the equilibrium constant for the complex coming apart.

The values are drawn from patent US20210380678A1 (SURROZEN OPERATING, published 2021).
